Substrate: CC(=O)C=O
Assay: purified protein
Assay type: biochemical, Saccharomyces cerevisiae
Settings: two-substrate sequential model (model 2), co-substrate glutathione, 70 mM potassium phosphate pH 6.5, 30°C, no glyoxalase II

B1: yeast glyoxalase I (EC 4.4.1.5); glyoxalase I from Saccharomyces cerevisiae (Sigma) (Saccharomyces cerevisiae S288C) (protein)
chain: MSTDSTRYPIQIEKASNDPTLLLNHTCLRVKDPARTVKFYTEHFGMKLLSRKDFEEAKFSLYFLSFPKDDIPKNKNGEPDVFSAHGVLELTHNWGTEKNPDYKINNGNEEPHRGFGHICFSVSDINKTCEELESQGVKFKKRLSEGRQKDIAFALGPDGYWIELITYSREGQEYPKGSVGNKFNHTMIRIKNPTRSLEFYQNVLGMKLLRTSEHESAKFTLYFLGYGVPKTDSVFSCESVLELTHNWGTENDPNFHYHNGNSEPQGYGHICISCDDAGALCKEIEVKYGDKIQWSPKFNQGRMKNIAFLKDPDGYSIEVVPHGLIA
notes: no tags or mass told
For B1, the Km was 1200 ± 190 µM and the kcat was “(1.7±0.38)×10^5 min^−1”.
